The values below come from article PMC9484220.

Experiment [1] has as its target AQP2 protein (eukaryotic expression, purified; Flag-Mcherry tag excised) (UniProt P41181). The experiment can be described thus: SPR; BIAcore T200; AQP2 immobilised on CM5 chip by amine coupling (10 mM NaAc, pH 4.0); MIAC peptide injected; HBS-EP buffer; equilibrium Req values of 5 concentrations fitted to 1:1 binding. For orientation: SPR reads the build-up and loss of mass on a sensor chip optically.

For experiment [2], the target named is chemosynthetic peptide MIAC labeled by CY5. The experiment is described as follows: MST; CY5-labeled MIAC with AQP2 protein, incubated 5 min at room temperature, premium-coated capillaries, Monolith NT.115.

For orientation: Kd means the constant that tells how readily two partners part at equilibrium. Take chemically synthesized MIAC polypeptide: the Kd in experiment [1] came to 5.13 µM.

B1: AQP2 protein (eukaryotic expression, purified; Flag-Mcherry tag excised) (natural protein)
chain: MWELRSIAFSRAVFAEFLATLLFVFFGLGSALNWPQALPSVLQIAMAFGLGIGTLVQALGHISGAHINPAVTVACLVGCHVSVLRAAFYVAAQLLGAVAGAALLHEITPADIRGDLAVNALSNSTTAGQAVTVELFLTLQLVLCIFASTDERRGENPGTPALSIGFSVALGHLLGIHYTGCSMNPARSLAPAVVTGKFDDHWVFWIGPLVGAILGSLLYNYVLFPPAKSLSERLAVLKGLEPDTDWEEREVRRRQSVELHSPQSLPRGTKA
Molecule B1 had a Kd in experiment [2] of 6.92 µM.
